Assays:
Settings in all cases: source organism: Rickettsia akari str. Hartford
[1] = target: HLA-C*15:02; assay: IEDB peptide-MHC binding, purified MHC/direct/fluorescence; filed as Kd, often an IC50 or EC50 that approximates it; ≥ and ≤ were set here for values at or beyond the usual limits of such assays
[2] = target: HLA-B*08:01; assay: IEDB peptide-MHC binding, purified MHC/competitive/fluorescence; filed as Kd, often an IC50 or EC50 that approximates it; ≥ and ≤ were set here for values at or beyond the usual limits of such assays
[3] = target: HLA-A*30:01; assay: as above
[4] = target: HLA-A*26:01; assay: as above
[5] = target: HLA-A*02:16; assay: as above
[6] = target: HLA-A*01:01; assay: as above
[7] = target: HLA-B*44:02; assay: as above
[8] = target: HLA-A*30:02; assay: as above
[9] = target: HLA-A*66:01; assay: as above
[10] = target: HLA-B*51:01; assay: as above
[11] = target: HLA-A*02:01; assay: as above
[12] = target: HLA-B*15:01; assay: as above
[13] = target: HLA-A*02:03; assay: as above
[14] = target: HLA-B*57:01; assay: as above
[15] = target: HLA-A*69:01; assay: as above
[16] = target: HLA-B*27:03; assay: as above
[17] = target: HLA-B*14:02; assay: as above
[18] = target: HLA-B*27:05; assay: as above
[19] = target: HLA-A*23:01; assay: as above
[20] = target: HLA-B*18:01; assay: as above
[21] = target: HLA-B*39:01; assay: as above
[22] = target: HLA-B*40:01; assay: as above
[23] = target: HLA-B*53:01; assay: as above
[24] = target: HLA-B*46:01; assay: as above

Sequence: FTARIIIFS
- Kd [1]: ≥ 20 µM
- Kd [2]: ≥ 5 µM
- Kd [3]: ≥ 5 µM
- Kd [4]: ≥ 20 µM
- Kd [5]: ≥ 20 µM
- Kd [6]: ≥ 5 µM
- Kd [7]: ≥ 5 µM
- Kd [8]: ≥ 5 µM
- Kd [9]: 3000 nM
- Kd [10]: ≥ 20 µM
- Kd [11]: ≥ 20 µM
- Kd [12]: ≥ 20 µM
- Kd [13]: ≥ 20 µM
- Kd [14]: ≥ 20 µM
- Kd [15]: ≥ 20 µM
- Kd [16]: ≥ 20 µM
- Kd [17]: ≥ 5 µM
- Kd [18]: ≥ 5 µM
- Kd [19]: ≥ 20 µM
- Kd [20]: ≥ 20 µM
- Kd [21]: ≥ 20 µM
- Kd [22]: ≥ 5 µM
- Kd [23]: ≥ 5 µM
- Kd [24]: ≥ 20 µM
